Tests used:
[1] = biological target: GST-L3cyto-Y667F
[2] = biological target: GST-SiglecBMSL3cyto (wildtype)
[3] = biological target: L3cyto-Y691F
[4] = biological target: GST-L3cyto-Y641alone

Protein	Decrease in Wild type Phosphorylation [1] [%]	phosphorylation of wildtype GST-SIGLECBMS-L3cyto (kinase ELISA, anti p-Tyr HRP) [2]	Decrease in Wild type Phosphorylation [3] [%]	Decrease in Wild type Phosphorylation [4] [%]
JAK3 kinase (protein) MAPPSEETPLIPQRSCSLLSTEAGALHVLLPARGPGPPQRLSFSFGDHLAEDLCVQAAKASGILPVYHSLFALATEDLSCWFPPSHIFSVEDASTQVLLYRIRFYFPNWFGLEKCHRFGLRKDLASAILDLPVLEHLFAQHRSDLVSGRLPVGLSLKEQGECLSLAVLDLARMAREQAQRPGELLKTVSYKACLPPSLRDLIQGLSFVTRRRIRRTVRRALRRVAACQADRHSLMAKYIMDLERLDPAGAAETFHVGLPGALGGHDGLGLLRVAGDGGIAWTQGEQEVLQPFCDFPEIVDISIKQAPRVGPAGEHRLVTVTRTDNQILEAEFPGLPEALSFVALVDGYFRLTTDSQHFFCKEVAPPRLLEEVAEQCHGPITLDFAINKLKTGGSRPGSYVLRRSPQDFDSFLLTVCVQNPLGPDYKGCLIRRSPTGTFLLVGLSRPHSSLRELLATCWDGGLHVDGVAVTLTSCCIPRPKEKSNLIVVQRGHSPPTSSLVQPQSQYQLSQMTFHKIPADSLEWHENLGHGSFTKIYRGCRHEVVDGEARKTEVLLKVMDAKHKNCMESFLEAASLMSQVSYRHLVLLHGVCMAGDSTMVQEFVHLGAIDMYLRKRGHLVPASWKLQVVKQLAYALNYLEDKGLPHGNVSARKVLLAREGADGSPPFIKLSDPGVSPAVLSLEMLTDRIPWVAPECLREAQTLSLEADKWGFGATVWEVFSGVTMPISALDPAKKLQFYEDRQQLPAPKWTELALLIQQCMAYEPVQRPSFRAVIRDLNSLISSDYELLSDPTPGALAPRDGLWNGAQLYACQDPTIFEERHLKYISQLGKGNFGSVELCRYDPLGDNTGALVAVKQLQHSGPDQQRDFQREIQILKALHSDFIVKYRGVSYGPGRQSLRLVMEYLPSGCLRDFLQRHRARLDASRLLLYSSQICKGMEYLGSRRCVHRDLAARNILVESEAHVKIADFGLAKLLPLDKDYYVVREPGQSPIFWYAPESLSDNIFSRQSDVWSFGVVLYELFTYCDKSCSPSAEFLRMMGCERDVPALCRLLELLEEGQRLPAPPACPAEVHELMKLCWAPSPQDRPSFSALGPQLDMLWSGSRGCETHAFTAHPEGKHHSLSFS	50	JAK3 (92%)	25	
ZAP70 kinase (protein) MPDPAAHLPFFYGSISRAEAEEHLKLAGMADGLFLLRQCLRSLGGYVLSLVHDVRFHHFPIERQLNGTYAIAGGKAHCGPAELCEFYSRDPDGLPCNLRKPCNRPSGLEPQPGVFDCLRDAMVRDYVRQTWKLEGEALEQAIISQAPQVEKLIATTAHERMPWYHSSLTREEAERKLYSGAQTDGKFLLRPRKEQGTYALSLIYGKTVYHYLISQDKAGKYCIPEGTKFDTLWQLVEYLKLKADGLIYCLKEACPNSSASNASGAAAPTLPAHPSTLTHPQRRIDTLNSDGYTPEPARITSPDKPRPMPMDTSVYESPYSDPEELKDKKLFLKRDNLLIADIELGCGNFGSVRQGVYRMRKKQIDVAIKVLKQGTEKADTEEMMREAQIMHQLDNPYIVRLIGVCQAEALMLVMEMAGGGPLHKFLVGKREEIPVSNVAELLHQVSMGMKYLEEKNFVHRDLAARNVLLVNRHYAKISDFGLSKALGADDSYYTARSAGKWPLKWYAPECINFRKFSSRSDVWSYGVTMWEALSYGQKPYKKMKGPEVMAFIEQGKRMECPPECPPELYALMSDCWIYKWEDRPDFLTVEQRMRACYYSLASKVEGPPGSTQKAEAACA	100	ZAP70 (20%)		20
emt kinase (protein) MNNFILLEEQLIKKSQQKRRTSPSNFKVRFFVLTKASLAYFEDRHGKKRTLKGSIELSRIKCVEIVKSDISIPCHYKYPFQVVHDNYLLYVFAPDRESRQRWVLALKEETRNNNSLVPKYHPNFWMDGKWRCCSQLEKLATGCAQYDPTKNASKKPLPPTPEDNRRPLWEPEETVVIALYDYQTNDPQELALRRNEEYCLLDSSEIHWWRVQDRNGHEGYVPSSYLVEKSPNNLETYEWYNKSISRDKAEKLLLDTGKEGAFMVRDSRTAGTYTVSVFTKAVVSENNPCIKHYHIKETNDNPKRYYVAEKYVFDSIPLLINYHQHNGGGLVTRLRYPVCFGRQKAPVTAGLRYGKWVIDPSELTFVQEIGSGQFGLVHLGYWLNKDKVAIKTIREGAMSEEDFIEEAEVMMKLSHPKLVQLYGVCLEQAPICLVFEFMEHGCLSDYLRTQRGLFAAETLLGMCLDVCEGMAYLEEACVIHRDLAARNCLVGENQVIKVSDFGMTRFVLDDQYTSSTGTKFPVKWASPEVFSFSRYSSKSDVWSFGVLMWEVFSEGKIPYENRSNSEVVEDISTGFRLYKPRLASTHVYQIMNHCWKERPEDRPAFSRLLRQLAEIAESGL	70	emt(65%)		

From patent US20030036631
